Key:
[1] = cited from earlier work
[2] = system: healthy male normoglycemic Wistar rats; assay: Blood glucose-lowering effect of novel insulin analogues in rats; format: in vivo, rat; settings: 9 nmol/kg s.c., n=8, up to eight hours, FIG. 1
Protocol: The blood glucose-lowering effect of selected novel insulin analogues is tested in healthy male normoglycemic Wistar rats. Male rats receive subcutaneous injection of a dose of 9 nmol/kg of an insulin analogue. Blood samples are taken from the animals immediately before the injection of the insulin analogue and at regular intervals up to eight hours after the injection, and the blood glucose content therein is determined.

Substance	calculated pI ([1]; calculated)	experimentally determined pI ([1]; experimentally determined)	hypoglycemic effect / time-action profile in rats [2]
Arg (A0), Gly (A21), Arg (B31), Arg (B32) human insulin [Compound 18 from Kohn et al.]	7.58	7.3	
Gly (A21), Arg (B31), Arg (B32) human insulin [insulin glargine]			delayed action of insulin glargine cannot by contrast be unambiguously observed in rats
